Laboratory results as given in publication doi:10.1101/2020.07.24.220665 (bioRxiv, 2020).
Several values for one entry are separate records, joined by “and”; a condition that tells them apart may be missing. Identical values can stand only once.

Biological target: the molecule itself
Assay: non-reducing PAGE

Protein	binding result	stoichiometry N
granulin-5 (GRN-5) (natural protein, UniProt P28799 364-417, looked up) VPCDNVSSCPSSDTCCQLTSGEWGCCPIPEAVCCSDHQHCCPQGYTCVAEGQCQ	binds	–
granulin-3 (GRN-3) (natural protein, UniProt P28799 206-261, looked up) VMCPDARSRCPDGSTCCELPSGKWGCCPMPNATCCSDHLHCCPQDTVCDLIQSKCL	–	2 and 3
